According to patent US20140161804A1 (AbbVie / Abbott, published 2014):
Values belong to the binder of their own block, whether it stands above or below them.

Target: T1, Human TNF (human, UniProt P01375 77-233)
T1 construct: Biotinylated in the ELISA; purified recombinant protein in SPR; also called h TNF; huTNF
Test: in vitro display selection on recombinant human TNF

T1 sequence (P01375 77-233 limits assumed): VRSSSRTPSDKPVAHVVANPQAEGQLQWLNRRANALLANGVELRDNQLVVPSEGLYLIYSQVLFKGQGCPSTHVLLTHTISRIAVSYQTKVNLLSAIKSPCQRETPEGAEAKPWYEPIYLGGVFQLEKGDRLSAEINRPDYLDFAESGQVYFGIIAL

binding result: binds
B1: TNF-JK1 (antibody, V domains shown)
VH: EVQLVESGGGLVQPGGSLRLSCATSGFTFNNYWMSWVRQAPGKGLEWVANINHDESEKYYVDSAKGRFTISRDNAEKSLFLQMNSLRAEDTAVYYCARIIRGRVGFDYYNYAMDVWGQGTLVTVSS
VL: DIRLTQSPSPLSASVGDRVTITCRASQSIGNYLNWYQHKPGKAPKLLIYAASSLQSGVPSRFSGTGSGTDFTLTISSLQPEDFATYYCQESYSLIFAGGTKVEIK
notes: Fully human anti-TNF antibody isolated by in vitro display; also called TNF-JK1 VH; TNF-JK1 VL

binding result: binds
B2: AE11-7 (antibody, V domains shown)
VH: EVQLVQSGAEVKKPGASVKVSCKTSGYSLTQYPIHWVRQAPGQRPEWMGWISPGNGNTKLSPKFQGRVTLSRDASAGTVFMDLSGLTSDDTAVYFCTSVDLGDHWGQGTLVTVSS
VL: DIVMTQSPEFQSVTPKEKVTITCRASQSIGSSLHWYQQKPDQSPKLLINYASQSFSGVPSRFSGGGSGTDFTLTINSLEAEDAATYYCHQSSNLPITFGQGTRLEIK
notes: Fully human anti-TNF antibody isolated by in vitro display; also called AE11-7 VH; AE11-7 VL
